Legend:
CCR5 (human) [1] = target: CCR5 (human) (UniProt P51681); assay: flow cytometry competition on CD8+ T cells of human PBMC; 5P12-RANTES at 0.8 ng/ml or less; competitor antibody 2D7
CCR5 (human) [2] = target: CCR5 (human) (UniProt P51681); assay: flow cytometry competition on CD8+ T cells of human PBMC; 5P12-RANTES at 100 ng/ml or greater; competitor antibody 2D7

UniProt P51681, sequence (P51681 whole entry): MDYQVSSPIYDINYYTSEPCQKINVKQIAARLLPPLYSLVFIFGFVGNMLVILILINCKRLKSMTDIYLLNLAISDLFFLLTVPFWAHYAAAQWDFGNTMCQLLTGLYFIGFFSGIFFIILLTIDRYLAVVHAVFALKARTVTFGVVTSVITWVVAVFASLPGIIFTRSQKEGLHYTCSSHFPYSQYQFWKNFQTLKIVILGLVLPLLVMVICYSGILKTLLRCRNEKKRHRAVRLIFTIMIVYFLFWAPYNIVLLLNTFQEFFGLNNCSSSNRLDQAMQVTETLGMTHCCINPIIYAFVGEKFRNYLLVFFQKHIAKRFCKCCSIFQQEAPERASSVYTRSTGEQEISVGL

Substance 5P12-RANTES (ligand) has a 2D7% binding (CCR5 (human) [1]) of 20% and a 2D7% binding (CCR5 (human) [2]) of under 1%.
